In publication PMC3020774 (The Journal of Biological Chemistry, 2010):

B2: recombinant ZHD5-MBP fusion protein (natural protein)
chain: MDMRSHEMIERRREDNGNNNGGVVISNIISTNIDDNCNGNNNNTRVSCNSQTLDHHQSKSPSSFSISAAAKPTVRYRECLKNHAASVGGSVHDGCGEFMPSGEEGTIEALRCAACDCHRNFHRKEMDGVGSSDLISHHRHHHYHHNQYGGGGGRRPPPPNMMLNPLMLPPPPNYQPIHHHKYGMSPPGGGGMVTPMSVAYGGGGGGAESSSEDLNLYGQSSGEGAGAAAGQMAFSMSSSKKRFRTKFTTDQKERMMDFAEKLGWRMNKQDEEELKRFCGEIGVKRQVFKVWMHNNKNNAKKPPTPTTTL

How the values were obtained:
[1] = biological target: B2; assay: native gel or EMSA
native gel or EMSA = biological target: the molecule itself; assay: native gel or EMSA
ZHD5-MBP = biological target: T1, ZHD5-MBP (UniProt Q9FRL5 1-309); assay: EMSA
T1 sequence: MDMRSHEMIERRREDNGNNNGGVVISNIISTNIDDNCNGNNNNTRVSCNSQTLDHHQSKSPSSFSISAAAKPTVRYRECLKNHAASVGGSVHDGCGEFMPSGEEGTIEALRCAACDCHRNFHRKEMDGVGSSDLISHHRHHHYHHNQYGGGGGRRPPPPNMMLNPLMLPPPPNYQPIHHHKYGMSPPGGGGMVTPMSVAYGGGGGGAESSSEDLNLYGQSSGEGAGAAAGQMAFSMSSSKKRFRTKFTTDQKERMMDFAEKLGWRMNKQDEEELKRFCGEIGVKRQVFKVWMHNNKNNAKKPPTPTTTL

B1: recombinant MIF1-GST fusion protein (natural protein)
chain: MMKKRQMVIKQRSRNSNTSSSWTTTSSSSSSSEISNVRYVECQKNHAANIGGYAVDGCREFMAAGVEGTVDALRCAACGCHRNFHRKEVDTEVVCEYSPPNA
binding result [1]: binds

B2
binding result (native gel or EMSA): binds

B3: ATTA EMSA probe (dsDNA)
DNA 1: CAGTGTCTTGTAATTAAAAA
DNA 2: TTTTTAATTACAAGACACTG
binding result (ZHD5-MBP): binds
